Here are results for 167 variants from the RNAGym collection of RNA variant scans (doi:10.7554/elife.90254).

B1: LINE1-full (parent)
chain: UACGUAGGUGGUUUUCCCCUGAUAGUGCUAAGGGGGCCUGGAAGUUUGGACUGGGCAGAGCUCAACACAGCGUGGCAAAGUGGCUGUGGCUAGACUGCCUCUCUGGAUUCCUCGUCACUCAGCAGGGCAUCUCUGAGAGAAAUGCC

In the data set the parent is B1. Briefly: self-cleavage, relative activity (ratio to wild type); higher = more cleavage; in vitro, sequencing; the parent is a self-cleaving ribozyme.
Consider U13A U130C, for which the self-cleavage came to 1.22.
With U13C G122A, the self-cleavage worked out at 1.5.
The figure for U13C G122U is 1.02; for U13C A30G it is 0.77; for U13A C56A it is 0.05.
For the variant U13C A142U, the self-cleavage turned out to be 1.09.
Take U13C G54A: the self-cleavage came out at 0.62.
The figure for U13C G54U is 0.6; for U13C C103A it is 1; for U13C C103U it is 1.06.
For U13C G72A, the self-cleavage is 1.22.
Turning to U13C G49A, the self-cleavage is 0.88.
For U13C A64C, the self-cleavage was found to be 0.45.
On to U13C A64U, for which the self-cleavage was found to be 0.44.
As for U13A A78U, the self-cleavage was determined as 1.52.
Regarding U13C C17U, the self-cleavage was determined as 1.19.
With U13A U134C, the self-cleavage was 0.85.
On to U13C G144A, for which the self-cleavage worked out at 1.91.
The figure for U13A U20A is 1.15.
Consider U13A A69G, for which the self-cleavage was 0.25.
To U13A A69C belongs 0.08; to U13A A69U, 0.01.
U13A A140G: the self-cleavage turned out to be 0.52.
As for U13A A59U, the self-cleavage came out at 0.44.
The figure for U13C is 1.15; for U13C A77U it is 0.87; for U13C A77C it is 1.15.
In the case of U13C A77G, the self-cleavage amounted to 1.85.
For the variant U13C A107C, the self-cleavage is 0.94.
As for U13C A107G, the self-cleavage is 1.39.
As to U13A U29A, the self-cleavage was determined as 0.42.
With U13C G106A, the self-cleavage was 1.51.
As to U13A U109C, the self-cleavage was found to be 1.17.
As to U13C C18U, the self-cleavage amounted to 1.57.
U13C A138C: the self-cleavage is 1.13.
Consider U13C A138U, for which the self-cleavage was determined as 1.31.
To U13C C110U belongs 1.43; to U13A G83A, 0.58; to U13A U85C, 0.13.
Take U13A C128U: the self-cleavage was determined as 1.61.
For U13A C19A, the self-cleavage is 1.84.
Consider U13C U20G, for which the self-cleavage was determined as 0.69.
The figure for U13C U20C is 1.06; for U13A C71G it is 0.2; for U13C U39C it is 1.08.
Turning to U13C G55C, the self-cleavage is 0.25.
The figure for U13C G80A is 1.48; for U13A A67U it is 0.07.
U13A A67G: the self-cleavage stood at 0.22.
With U13C C116A, the self-cleavage came out at 1.15.
As to U13C C116U, the self-cleavage was 0.7.
To U13C A94G belongs 0.33; to U13C A121C, 1.34; to U13C A121U, 1.26.
With U13C A121G, the self-cleavage turned out to be 1.52.
U13C C131A: the self-cleavage came out at 1.28.
With U13A G125A, the self-cleavage was found to be 0.72.
On to U13A G125U, for which the self-cleavage stood at 1.03.
Turning to U13A U143A, the self-cleavage came out at 0.84.
On to U13A U143G, for which the self-cleavage came out at 1.01.
On to U13C C51U, for which the self-cleavage came out at 0.97.
As for U13C C98G, the self-cleavage worked out at 0.15.
Consider U13C C98U, for which the self-cleavage worked out at 0.35.
Turning to U13C G33U, the self-cleavage worked out at 1.64.
In the case of U13C G40U, the self-cleavage was found to be 1.87.
As to U13C G40A, the self-cleavage worked out at 0.91.
For U13A A142G, the self-cleavage was determined as 1.2.
With U13C U23C, the self-cleavage turned out to be 0.41.
Take U13A U91C: the self-cleavage was found to be 0.89.
With U13C A78G, the self-cleavage came out at 0.99.
For U13C A78U, the self-cleavage turned out to be 1.81.
For U13C U45G, the self-cleavage came to 1.46.
With U13A U81A, the self-cleavage is 1.81.
The figure for U13A U81C is 0.85; for U13C U47C it is 1.56.
To U13C U46G belongs 1.31.
The figure for U13C U46A is 1.13; for U13C C84U it is 0.11; for U13A G48A it is 1.01.
Turning to U13C G89A, the self-cleavage amounted to 0.04.
For U13A G137A, the self-cleavage came out at 1.13.
Take U13A C131U: the self-cleavage was 1.15.
In the case of U13A U115G, the self-cleavage was 1.29.
Consider U13A U115C, for which the self-cleavage was determined as 1.56.
As for U13C C128U, the self-cleavage is 0.78.
To U13C C128A belongs 0.79; to U13C G35A, 1.13.
As to U13A U73A, the self-cleavage worked out at 1.04.
With U13A U73C, the self-cleavage was found to be 0.94.
To U13A A77G belongs 0.46; to U13A C98G, 0.09.
Turning to U13C U15C, the self-cleavage amounted to 1.03.
For U13A U62C, the self-cleavage came to 0.03.
For U13A U62A, the self-cleavage stood at 0.06.
For the variant U13C C71U, the self-cleavage was determined as 0.58.
Consider U13C C71A, for which the self-cleavage came to 0.24.
Take U13A C37U: the self-cleavage turned out to be 0.72.
Consider U13C C99U, for which the self-cleavage was determined as 0.48.
U13A U47G: the self-cleavage was 0.38.
The figure for U13A U47A is 1.01.
Turning to U13C C145A, the self-cleavage came out at 1.6.
Regarding U13C A43C, the self-cleavage worked out at 0.84.
On to U13C A43U, for which the self-cleavage is 1.29.
The figure for U13C A43G is 0.99; for U13C A69U it is 0.1.
To U13C G75A belongs 1.16.
As to U13A C63U, the self-cleavage was found to be 0.35.
In the case of U13A C145U, the self-cleavage is 1.26.
Turning to U13A A121U, the self-cleavage amounted to 1.12.
Take U13C C66U: the self-cleavage is 0.14.
On to U13C A57U, for which the self-cleavage worked out at 0.12.
As to U13C A57G, the self-cleavage came to 0.76.
As to U13A U96C, the self-cleavage was found to be 0.1.
As for U13A U23C, the self-cleavage came out at 1.62.
Take U13C A124G: the self-cleavage was 1.04.
Consider U13C A65G, for which the self-cleavage amounted to 0.12.
With U13C C90U, the self-cleavage turned out to be 0.04.
Consider U13A U46A, for which the self-cleavage came to 1.21.
The figure for U13A G40A is 1.19.
As for U13C G36A, the self-cleavage stood at 1.2.
Regarding U13C G105A, the self-cleavage worked out at 1.33.
On to U13A U26A, for which the self-cleavage worked out at 0.78.
On to U13A U26C, for which the self-cleavage is 1.19.
For the variant U13A A79U, the self-cleavage is 0.96.
U13C A24U: the self-cleavage was 1.11.
Turning to U13A U132A, the self-cleavage is 0.87.
For U13A U132C, the self-cleavage turned out to be 0.98.
For U13A U132G, the self-cleavage is 0.6.
As for U13C A129C, the self-cleavage amounted to 1.33.
On to U13C A59G, for which the self-cleavage was found to be 0.13.
Consider U13C A59U, for which the self-cleavage turned out to be 0.86.
Regarding U13C G97A, the self-cleavage was found to be 0.08.
The figure for U13A G82U is 0.65; for U13C U62C it is 0.09.
As for U13C U62G, the self-cleavage was 0.
Consider U13C U62A, for which the self-cleavage turned out to be 0.12.
On to U13C A140G, for which the self-cleavage is 1.23.
The figure for U13C C120U is 1.05; for U13A U108C it is 1.02.
In the case of U13C A31U, the self-cleavage was 1.1.
For U13C G135A, the self-cleavage amounted to 0.75.
Turning to U13C G41A, the self-cleavage came out at 1.81.
On to U13A A107G, for which the self-cleavage stood at 1.11.
Regarding U13A A107U, the self-cleavage amounted to 1.74.
The figure for U13C G21A is 0.94.
For U13C G21U, the self-cleavage was 1.
The figure for U13C G126U is 1.2; for U13C G25U it is 1.52.
To U13C G53U belongs 1.11; to U13C G53C, 2.02; to U13C A117U, 1.07.
As for U13C A117G, the self-cleavage came out at 1.02.
To U13C A67G belongs 0.71.
As for U13A U14A, the self-cleavage turned out to be 1.14.
To U13A U14C belongs 0.46.
Regarding U13C U52G, the self-cleavage turned out to be 1.3.
Consider U13A C118U, for which the self-cleavage was 0.52.
For U13C A50U, the self-cleavage was 0.83.
To U13C A22U belongs 1.22; to U13C G139U, 1.19; to U13A A64G, 0.12.
To U13A A64U belongs 0.25; to U13C A136U, 1.18; to U13C A136G, 1.25.
As to U13A A92G, the self-cleavage came to 0.12.
On to U13A C111U, for which the self-cleavage was 0.89.
For U13A G126U, the self-cleavage came to 1.86.
